Data on 51 molecules can be found in patent publication US20260193293A1, “PEPTIDES CAPABLE OF INHIBITING PROTEIN-PROTEIN INTERACTIONS AT GABAB1A SUBUNIT AND USES THEREOF” (UNIVERSITY OF COPENHAGEN, priority 2022, published 2026).

Non-standard residues stand in square brackets, D forms with d. Sar = CNCC(=O)O

B1: …(N-Me-G)ADTD (peptide)
peptide: Ac-EDDSDVWWYG[Sar]ADTD-NH2
SMILES: CC(=O)N[C@@H](CCC(=O)O)C(=O)N[C@@H](CC(=O)O)C(=O)N[C@@H](CC(=O)O)C(=O)N[C@@H](CO)C(=O)N[C@@H](CC(=O)O)C(=O)N[C@H](C(=O)N[C@@H](Cc1c[nH]c2ccccc12)C(=O)N[C@@H](Cc1c[nH]c2ccccc12)C(=O)N[C@@H](Cc1ccc(O)cc1)C(=O)NCC(=O)N(C)CC(=O)N[C@@H](C)C(=O)N[C@@H](CC(=O)O)C(=O)N[C@H](C(=O)N[C@@H](CC(=O)O)C(N)=O)[C@@H](C)O)C(C)C
B2: …(N-Me-G)ADTD (peptide)
peptide: Ac-EDDSWVWWG[Sar]ADTD-NH2
SMILES: CC(=O)N[C@@H](CCC(=O)O)C(=O)N[C@@H](CC(=O)O)C(=O)N[C@@H](CC(=O)O)C(=O)N[C@@H](CO)C(=O)N[C@@H](Cc1c[nH]c2ccccc12)C(=O)N[C@H](C(=O)N[C@@H](Cc1c[nH]c2ccccc12)C(=O)N[C@@H](Cc1c[nH]c2ccccc12)C(=O)NCC(=O)N(C)CC(=O)N[C@@H](C)C(=O)N[C@@H](CC(=O)O)C(=O)N[C@H](C(=O)N[C@@H](CC(=O)O)C(N)=O)[C@@H](C)O)C(C)C
B3: peptide 38 (peptide)
peptide: Ac-ETEFIAWG[Sar]TGDED-NH2
SMILES: CC[C@H](C)[C@H](NC(=O)[C@H](Cc1ccccc1)NC(=O)[C@H](CCC(=O)O)NC(=O)[C@@H](NC(=O)[C@H](CCC(=O)O)NC(C)=O)[C@@H](C)O)C(=O)N[C@@H](C)C(=O)N[C@@H](Cc1c[nH]c2ccccc12)C(=O)NCC(=O)N(C)CC(=O)N[C@H](C(=O)NCC(=O)N[C@@H](CC(=O)O)C(=O)N[C@@H](CCC(=O)O)C(=O)N[C@@H](CC(=O)O)C(N)=O)[C@@H](C)O
B4: …(N-Me-G)ADTD (peptide)
peptide: Ac-EDDSDVWWY[Sar]ADTD-NH2
SMILES: CC(=O)N[C@@H](CCC(=O)O)C(=O)N[C@@H](CC(=O)O)C(=O)N[C@@H](CC(=O)O)C(=O)N[C@@H](CO)C(=O)N[C@@H](CC(=O)O)C(=O)N[C@H](C(=O)N[C@@H](Cc1c[nH]c2ccccc12)C(=O)N[C@@H](Cc1c[nH]c2ccccc12)C(=O)N[C@@H](Cc1ccc(O)cc1)C(=O)N(C)CC(=O)N[C@@H](C)C(=O)N[C@@H](CC(=O)O)C(=O)N[C@H](C(=O)N[C@@H](CC(=O)O)C(N)=O)[C@@H](C)O)C(C)C

In this test the target is Sushi domains (SD1/2) protein of GABAB1a (GB1a). Briefly: FP competition vs TAMRA AJAP-1probe.
Sushi domains (SD1/2) protein of GABAB1a (GB1a), sequence (Q9Z0U4 29-158): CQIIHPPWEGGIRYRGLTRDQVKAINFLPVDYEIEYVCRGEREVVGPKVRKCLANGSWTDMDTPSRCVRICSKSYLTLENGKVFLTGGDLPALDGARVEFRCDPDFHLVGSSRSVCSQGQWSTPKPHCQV
By Ki is commonly meant the equilibrium dissociation constant of an inhibitor or competing ligand from its target. The molecule Ac-ETEFIAWGPTGDEQ-NH2 showed an inhibitory constant (Ki) of 37 nM.
For the molecule Ac-DWAIVWGPTVSRED-NH2, the inhibitory constant (Ki) was determined as 338 nM.
Turning to Ac-PWAIVWGPTVDRED-NH2, the Ki is 379 nM.
Molecule Ac-ETEFIAWGPTHDED-NH2 had a Ki of 30 nM. Compared with the last molecule, the Ki is about 13-fold lower.
With Ac-PWAIVWGPTVSDED-NH2 the figure was 327 nM.
For B1 the value was 164 nM.
With Ac-PWAIVWGPTSSRED-NH2 the figure was 383 nM; with Ac-PSAIVWGPTVSRED-NH2, 906 nM; with Ac-ETEFIAWYGADTD-NH2 [peptide 37], 95 nM.
Ac-PHAIVWGPTVSRED-NH2 returned a Ki of 1500 nM.
With Ac-ETEFIAWGPTGDEV-NH2 the figure was 40 nM.
With Ac-ETEFIAWGPTRDED-NH2 the figure was 32 nM.
For Ac-ETEFIAWGPTGDEP-NH2 the value was 41 nM; for Ac-AIVWGPTVSRED-NH2 (also: asterisk not explained), 773 nM.
Turning to Ac-ETEFIAWGPTGDEN-NH2, the Ki is 43 nM. Against the preceding molecule, the Ki is about 18-fold lower.
For Ac-EDDSDVWWGPTGDED-NH2 [hybrid peptide X] the value was 62 nM.
With Ac-ETEFIAWGPTGDWD-NH2 the figure was 54 nM; with Ac-PFAIVWGPTVSRED-NH2, 792 nM; with B2, 36 nM.
For the molecule Ac-PWYIVWGPTVSRED-NH2, the Ki is 336 nM.
With Ac-ETEFIAWGPTGDRD-NH2 the figure was 54 nM.
With Ac-ETEFIAWGPTGDDD-NH2 the figure was 27 nM.
Ac-ETEFIAWGPTGHED-NH2 returned a Ki of 60 nM.
With Ac-ETEFIAWGPSGDED-NH2 the figure was 32 nM; with Ac-ETEFIAWGPTGYED-NH2, 41 nM.
Ac-ETEFIAWGGADTD-NH2 [hybrid peptide Y] returned a Ki of 345 nM.
The molecule Ac-PWAIVWGPTDSRED-NH2 showed a Ki of 417 nM. This Ki and that of the molecule before are within 1.5-fold of each other.
With Ac-FIVWGPTVSRED-NH2 (not fully specified; printed as FIVWGPTVSRED*) the figure was 503 nM.
For Ac-PDAIVWGPTVSRED-NH2 the value was 673 nM; for B3, 32 nM; for Ac-VWAIVWGPTVSRED-NH2, 412 nM.
With Ac-PWFIVWGPTVSRED-NH2 the figure was 461 nM; with Ac-ETEFIAWGPTGDYD-NH2, 40 nM.
As to B4, the Ki is 201 nM.
For Ac-ETEFIAWYPADTD-NH2 the value was 190 nM; for Ac-ETEFIAWGPTGDPD-NH2, 34 nM.
As for Ac-AIVWGPTVSRED-NH2, the inhibition constant Ki is 683 nM. Against the preceding molecule, the Ki is about 20-fold higher.
Ac-FIVWGPTVSRED-NH2 returned a Ki of 367 nM.
For Ac-ETEFIAWYGPTGDED-NH2 the value was 195 nM; for Ac-ETEFIAWGPTGDEF-NH2, 48 nM.
For Ac-ETEFIAWGPTGDFD-NH2 the value was 41 nM; for Ac-DAIVWGPTVSRED-NH2 [… (SEQ ID NO: 342)], 208 nM.
For Ac-PWAIVWGPTGDED-NH2 the value was 222 nM; for Ac-DAIVWGPTVSRED-NH2 [… (SEQ ID NO: 341)], 715 nM.
Ac-PWAIDWGPTVSRED-NH2: the Ki was found to be 1300 nM.
With Ac-ETEFIAWYGPADTD-NH2 the figure was 182 nM; with Ac-PWFIVWGPTVSDED-NH2, 192 nM; with Ac-ETEFIAWGPTVSRED-NH2, 148 nM.
With Ac-ETEFIAWGPTGDEW-NH2 the figure was 54 nM.
With Ac-ETEFIAWGPHGDED-NH2 the figure was 38 nM; with Ac-PWVIVWGPTVSRED-NH2, 302 nM.
